According to publication doi:10.1101/870667:
Like-named read-outs stand apart in the source and are kept apart here.

How the values were obtained:
[1] = target: MLL1 core complex (MWRAD2 holo-complex) (human) (UniProt Q03164); test: AUC
[2] = target: MLL1 core complex (MWRAD2 holo-complex) (human) (UniProt Q03164); test: AUC; remark: listed apart in the source

With “MLL1 core complex (MWRAD2 holo-complex) (from UniProt Q03164;P61964;Q15291;Q9UBL3-3;Q9C005)” the stoichiometry N [1] was 2 and the stoichiometry N [2] was 18.
